Measured values taken from publication PMC10350107.

What was measured:
[1] = biological target: human MCM8–9 complex, wild type (FLAG-MCM8 with MBP-MCM9, co-expressed) (human) (UniProt Q9UJA3)
[2] = tested on: MCM8 (FLAG-MCM8);MCM9 (MBP-MCM9) (human;human); test: EMSA; conditions: EMSA: 25 mM Tris acetate pH 7.5, 3 mM EDTA (or 4 mM ATP + 1 mM Mg acetate), 1 mM DTT, 0.1 mg/ml BSA, 1 nM DNA (100 ng for plasmid-length DNA), 15 min on ice …

Sequence of human MCM8–9 complex, wild type (FLAG-MCM8 with MBP-MCM9, co-expressed) (human) (Q9UJA3 whole entry, chain 1 of 2): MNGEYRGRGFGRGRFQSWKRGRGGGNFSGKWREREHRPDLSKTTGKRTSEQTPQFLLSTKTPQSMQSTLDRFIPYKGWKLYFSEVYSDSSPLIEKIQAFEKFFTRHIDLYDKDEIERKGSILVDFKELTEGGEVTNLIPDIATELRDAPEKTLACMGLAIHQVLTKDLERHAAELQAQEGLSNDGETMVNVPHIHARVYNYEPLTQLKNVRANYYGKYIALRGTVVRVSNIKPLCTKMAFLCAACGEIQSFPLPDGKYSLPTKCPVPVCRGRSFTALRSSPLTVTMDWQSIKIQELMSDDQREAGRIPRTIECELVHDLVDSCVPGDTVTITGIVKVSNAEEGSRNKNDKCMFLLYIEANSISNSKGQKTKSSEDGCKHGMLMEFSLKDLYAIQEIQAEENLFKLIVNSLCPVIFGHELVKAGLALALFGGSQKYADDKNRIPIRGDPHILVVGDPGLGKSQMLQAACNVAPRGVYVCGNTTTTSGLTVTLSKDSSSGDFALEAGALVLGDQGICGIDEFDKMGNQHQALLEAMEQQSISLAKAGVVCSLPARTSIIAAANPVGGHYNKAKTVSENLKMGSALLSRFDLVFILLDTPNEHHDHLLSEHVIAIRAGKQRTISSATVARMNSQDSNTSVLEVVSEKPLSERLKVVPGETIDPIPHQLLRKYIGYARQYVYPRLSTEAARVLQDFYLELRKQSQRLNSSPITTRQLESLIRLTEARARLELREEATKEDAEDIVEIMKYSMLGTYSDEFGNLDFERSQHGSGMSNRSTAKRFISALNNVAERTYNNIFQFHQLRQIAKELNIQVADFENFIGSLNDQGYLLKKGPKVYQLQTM
Sequence of human MCM8–9 complex, wild type (FLAG-MCM8 with MBP-MCM9, co-expressed) (human) (Q9NXL9 whole entry, chain 2 of 2, further chain): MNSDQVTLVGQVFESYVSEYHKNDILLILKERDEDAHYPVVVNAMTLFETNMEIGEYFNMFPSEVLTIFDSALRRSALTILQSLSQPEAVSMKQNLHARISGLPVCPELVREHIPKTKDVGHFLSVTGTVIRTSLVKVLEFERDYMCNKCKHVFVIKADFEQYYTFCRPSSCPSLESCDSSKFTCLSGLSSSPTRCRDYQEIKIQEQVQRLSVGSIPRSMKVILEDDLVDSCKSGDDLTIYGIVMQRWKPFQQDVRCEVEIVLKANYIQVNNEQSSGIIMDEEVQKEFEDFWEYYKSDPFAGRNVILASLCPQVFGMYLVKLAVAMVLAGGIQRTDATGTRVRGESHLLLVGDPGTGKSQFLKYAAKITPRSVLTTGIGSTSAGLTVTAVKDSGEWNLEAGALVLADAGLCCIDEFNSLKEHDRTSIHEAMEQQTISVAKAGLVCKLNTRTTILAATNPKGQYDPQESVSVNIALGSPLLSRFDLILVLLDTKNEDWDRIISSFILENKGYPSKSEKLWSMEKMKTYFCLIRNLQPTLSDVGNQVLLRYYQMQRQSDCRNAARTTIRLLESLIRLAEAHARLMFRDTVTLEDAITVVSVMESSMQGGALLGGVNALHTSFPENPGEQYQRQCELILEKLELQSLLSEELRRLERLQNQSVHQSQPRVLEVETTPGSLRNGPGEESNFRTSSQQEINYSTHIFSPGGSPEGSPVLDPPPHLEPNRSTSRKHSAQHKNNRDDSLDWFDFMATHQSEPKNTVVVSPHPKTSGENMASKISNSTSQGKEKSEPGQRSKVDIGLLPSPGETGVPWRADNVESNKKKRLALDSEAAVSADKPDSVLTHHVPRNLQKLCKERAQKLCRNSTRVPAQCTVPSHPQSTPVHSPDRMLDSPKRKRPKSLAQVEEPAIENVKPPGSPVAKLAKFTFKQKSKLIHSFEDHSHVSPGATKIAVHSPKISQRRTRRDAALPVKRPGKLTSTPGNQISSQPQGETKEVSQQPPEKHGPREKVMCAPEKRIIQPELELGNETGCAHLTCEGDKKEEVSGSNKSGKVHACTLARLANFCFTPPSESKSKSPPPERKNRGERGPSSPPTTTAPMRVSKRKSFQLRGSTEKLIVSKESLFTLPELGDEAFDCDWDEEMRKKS

Work on “HROB-FLAG, wild type human HROB (homologous recombination factor with OB-fold) (from UniProt Q8N3J3-4 1-646) (natural protein)” yielded an ATP hydrolysis by MCM8–9 (200 nM) without or with HROB, DNA as co-factor; stimulation 1.5 to 2-fold [1] of 1.5 to 2 fold.
In the case of “Holliday junction (PC1253/PC1254/PC1255/PC1256)”, the K half [2] is reported as 55 nM.
Y-structure (PC1254/PC1253) showed a K half [2] of 55 nM.
